In publication doi:10.1101/2022.11.04.515028:

Biological target: GST-ELOB/ELOC complex (UniProt Q15370)
Test: fluorescence polarisation

| Substance | Kd | Ki |
| --- | --- | --- |
| EPOPwt-FAM (peptide) | 0.45 nM | – |
| EPOPwt (peptide) | – | 2.35 nM |
